Measurements taken from patent publication US20220275088A1 (Dana-Farber, published 2022).

T1: mouse PD-1 on transiently transfected Expi293 cells (mouse, UniProt Q02242 25-288)
T1 construct: whole, on cells; also called mPD-1
T1 sequence (looked up): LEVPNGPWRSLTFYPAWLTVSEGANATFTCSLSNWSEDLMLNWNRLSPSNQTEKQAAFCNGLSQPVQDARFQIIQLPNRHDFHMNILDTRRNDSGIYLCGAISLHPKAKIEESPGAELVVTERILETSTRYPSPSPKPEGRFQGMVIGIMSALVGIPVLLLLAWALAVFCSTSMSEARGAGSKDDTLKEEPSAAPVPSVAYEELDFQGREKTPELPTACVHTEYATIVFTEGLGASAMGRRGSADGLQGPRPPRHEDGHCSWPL


Key:
[1] = biological target: human PD-1 on cells (transfected Expi293 cells, PHA-cultured T cells, cells of the Promega PD1-PDL1 bioassay, … (human, UniProt Q15116 25-288)); assay: cell-based or functional assay
human PD-1 on cells (transfected Expi293 cells, PHA-cultured T cells, cells of the Promega PD1-PDL1 bioassay, …, sequence (Q15116 25-288): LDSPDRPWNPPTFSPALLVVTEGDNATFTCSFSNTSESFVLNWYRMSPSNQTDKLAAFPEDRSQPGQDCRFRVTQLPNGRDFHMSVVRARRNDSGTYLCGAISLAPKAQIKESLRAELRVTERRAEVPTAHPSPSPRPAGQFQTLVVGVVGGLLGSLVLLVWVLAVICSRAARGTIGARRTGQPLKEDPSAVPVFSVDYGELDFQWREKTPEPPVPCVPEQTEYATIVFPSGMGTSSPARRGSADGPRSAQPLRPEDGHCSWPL

[2] = biological target: T1, mouse PD-1 on transiently transfected …; assay: flow cytometry on transiently transfected Expi293 cells, anti human Fc-APC
Protocol: 3E5 transiently transfected Expi293 cells were suspended in 100 ul MACS buffer and added to each well. 50 ul of each antibody dilution were then mixed with the cells and the plate was incubated at 4° C. for 30 min. Following incubation, the plate was washed 2× with MACS buffer and then incubated with 1 ul/well anti human Fc-APC (Biolegend #409306). The plate was incubated for 25 min at 4° C. and then washed 3× before running the samples.

Row | Binder | fold induction (RLU stimulated/RLU unstimulated), Promega PD1-PDL1 bioassay [1] | binding result [2]
1 | P4-B3 IgG1 wild type monomer (antibody, V domains shown) VH: QVQLVQSGGGLVQPGRSLRLSCAASGFTFDDYAMHWVRQAPGKGLEWVSGISWNSGSIGYADSVKGRFTVSRDNAKNSLYLQMNSLRAEDTAVYYCASDYGDKYYYYGMDVWGKGTTVTVSS VL: QPGLTQPPSASGTPGQRVTISCSGSSSNIGSNTVNWYQQFPGKAPKLLIFNDNQRPSGVPDRFSASKSGTSASLAISGLQSEDEADYYCAAWDGGLNGRGVFGGGTKLTVLG | ~0.5 fold of the signal of pembro and nivo | –
2 | P4-B3 (Example 8, format not stated) (antibody, V domains shown, Detected with anti human Fc-APC, so it carries a human Fc) VH: QVQLVQSGGGLVQPGRSLRLSCAASGFTFDDYAMHWVRQAPGKGLEWVSGISWNSGSIGYADSVKGRFTVSRDNAKNSLYLQMNSLRAEDTAVYYCASDYGDKYYYYGMDVWGKGTTVTVSS VL: QPGLTQPPSASGTPGQRVTISCSGSSSNIGSNTVNWYQQFPGKAPKLLIFNDNQRPSGVPDRFSASKSGTSASLAISGLQSEDEADYYCAAWDGGLNGRGVFGGGTKLTVL | – | binds
